# Results from paper PMC5826802.
# B1: PARP15 (Homo sapiens) (protein)
# chain: NLPEHWTDMNHQLFCMVQLEPGQSEYNTIKDKFTRTCSSYAIEKIERIQNAFLWQSYQVKKRQMDIKNDHKNNERLLFHGTDADSVPYVNQHGFNRSCAGKNAVSYGKGTYFAVDASYSAKDTYSKPDSNGRKHMYVVRVLTGVFTKGRAGLVTPPPKNPHNPTDLFDSVTNNTRSPKLFVVFFDNQAYPEYLITFTA
# Substrate: NC(=O)c1ccc[n+]([C@@H]2O[C@H](COP(=O)([O-])OP(=O)(O)OC[C@H]3O[C@@H](n4cnc5c(N)ncnc54)[C@H](O)[C@@H]3O)[C@@H](O)[C@H]2O)c1
# Test: Enzyme kinetics of PARP15-catalyzed automodification by MLISA
# Format: biochemical, human
# Conditions: other: 500 nM PARP15, NAD+ 5-400 μM, Michaelis-Menten fit; pH 7.4
protein,measurement,value
B1,Km,4.5 ± 2.9 µM
